The source of these data is PMC8025907.

The target in data set [1] is T1, His6-BfmR (Pseudomonas aeruginosa MPAO1) (UniProt Q9HWS7).
T1 sequence: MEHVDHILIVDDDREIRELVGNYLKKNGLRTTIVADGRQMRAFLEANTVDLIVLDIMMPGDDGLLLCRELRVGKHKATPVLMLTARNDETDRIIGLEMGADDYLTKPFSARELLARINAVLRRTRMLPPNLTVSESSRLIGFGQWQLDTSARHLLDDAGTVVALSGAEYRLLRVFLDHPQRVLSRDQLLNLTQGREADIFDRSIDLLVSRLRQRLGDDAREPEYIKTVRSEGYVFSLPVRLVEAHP
In words: DNase I footprinting. Conditions: 10 mM Tris-Cl pH 8.0, 1 mM DTT, 10% glycerol, 5 mM MgCl2, 10 mM KCl, 50 mM acetyl phosphate; EMSA 30 min at 37 C; footprinting 30 min at room temperature.

For data set [2], the target named is T1, His6-BfmR (Pseudomonas aeruginosa MPAO1). The data set is described as follows: EMSA. Conditions: 10 mM Tris-Cl pH 8.0, 1 mM DTT, 10% glycerol, 5 mM MgCl2, 10 mM KCl, 50 mM acetyl phosphate; EMSA 30 min at 37 C; footprinting 30 min at room temperature. Background: Mobility shift assays separate free from complexed probe on a gel.

“GAATATCCGAAAGCCAGACGGTTATCGGCAGAAACTCTTGGTTTTCATTGCAGTCATGCAATCTTCGCAAGGTTGCCGCAATATATGAAACAAACTGTTACATCTGTCGCCCGGACCTGATGCCTCTAGGCCTGCGCCCTTATCCGACGGCCTCATCCAGGCGCTATCCGGCTGCCTGTCACAAAAGCTTTCGCGCTTTGCAGTCTCGCTGTCACAACCCATCCAGATGATCCCCCTCCAGCAGCGCCGGCCGGCGACAGAACCGGCCGTTTCCGCGCTGCTCAAGA (double strand) [oprP promoter]”: the binding result in data set [1] and in data set [2] was “binds” throughout.
